# Test results as given in patent publication US20120122115A1, “Bacterial quorum sensing biosensor” (priority 2006, published 2012).
# B1: M3CLPY: CLPY with LuxP BAI-2 binding site mutations Q77A, S79A, and W82F (protein)
# chain: MRGSHHHHHHGSACELGTMKGEELFTGVVPILVELDGDVNGHKFSVSGEGEGDATYGKLTLKFICTTGKLPVPWPTLVTTLTWGVQCFSRYPDHMKQHDFFKSAMPEGYVQQRTIFFKDDGNYKTRAEVKFEGDTLVNRIELKGIDFKEDGNILGHKLEYNYISHNVYITADKQKNGIKANFKIRHNIEDGSVQLADHYQQNTPIGDGPVLLPDNHYLSIQSALSKDPNEKRDHMVLKEFVTAAGITHGMDELYTADGVLNGYWGYQEFLDEFPEQRNLTNALSEAVRAQPVPLSKPTQRPIKISVVYPGQAVADYFVRNIASFEKRLYKLNINYQLNQVFTRPNADIKQQSLSLMEALKSKSDYLIFTLDTTRHRKFVEHVLDSTNTKLILQNITTPVREWDKHQPFLYVGFDHAEGSRELATEFGKFFPKHTYYSVLYFSEGYISDVRGDTFIHQVNRDNNFELQSAYYTKATKQSGYDAAKASLAKHPDVDFIYACSTDVALGAVDALAELGREDIMINGWGGGSAELDAIQKGALDITVMRMNDDTGIAMAEAIKWDLEDKPVPTVYSGDFEIVTKADSPERIEALKKRAFRYSDNGGAAAKGEELFTGVVPILVELDGDVNGHKFSVSGEGEGDATYGKLTLYFICTTGKLPVPWPTLVTTLGYGLKCFARYPDHMKQHDFFKSAMPEGYVQERTIFFKDDGNYKTRAEVKFEGDTLVNRIELKGIDFKEDGNILGHKLEYNYNSHNVYIMADKQKNGIKVNFKIRHNIEDGSVQLADHYQQNTPIGDGPVLLPDNHYLSYQSALSKDPNEKRDHMVLKEFVTAAGITHGMDELYK
# Experiment: FRET response of LuxP BAI-2 binding site mutant biosensors to BAI-2
# Description: Site-directed mutations were carried out using the QuikChange mutagenesis kit (Stratagene). The perGFP plasmid containing the gene encoding the green fluorescent protein (GFP) is used for creating cyan and yellow variants CFP and YFP, respectively. An L221K mutation is introduced into the gene encoding CFP or YFP to reduce the possible level of intermolecular dimerization. Cloning vector pSP72 (Promega) is used for creating 5′ to 3′ end-to-end gene fusions of PCR fragments containing the genes encoding CFP (5′ KpnI/3′ EagI), V. harveyi LuxP (70 to 1095 bp; 5′ EagI/3′ NotI), and YFP (5′ NotI/3′ PstI), generating plasmid pSP72-CLPY. The CLPY gene fusion is removed using the restriction enzymes KpnI and PstI and subcloned into a pQE-30 bacterial expression vector (Qiagen) containing an N-terminal six-His tag, generating plasmid pQE30-CLPY. LuxP BAI-2 binding site mutants pQE30-M2CLPY (Q77A and S79A) and pQE30-M3CLPY (Q77A, S79A, and W82F) are created using pQE30-CLPY as a template and confirmed by DNA sequence analysis.
# The YFP or CFP fluorescence response of wild-type and mutant forms of CLPY (1.0 mL, 0.015 mg/mL) to different ligands is measured 5 minutes after addition of the ligand to the protein at room temperature. No time-dependent changes in the CLPY FRET ratio are observed after incubation for 5 minutes. […]
molecule,measurement,setting,value
B1,FRET response to BAI-2 (qualitative),"following addition of BAI-2, compared to wild-type CLPY",insensitive to BAI-2
same,FRET response relative to the wild-type biosensor,supersaturating BAI-2 (10 μM),18%
